This passage reports Kd results from article PMC3936261.

Holding throughout (test): other fluorescence titration
The target in test [1] is Prdx1 protein labeled with Alexa Fluor 546 (UniProt Q06830).
Test [2] has the same target. This is another data set of the same source.
Test [3] has the same target. This is another data set of the same source.

Like-named read-outs stand apart in the source and are kept apart here.

Chain of Prdx1 protein labeled with Alexa Fluor 546 (Q06830 whole entry): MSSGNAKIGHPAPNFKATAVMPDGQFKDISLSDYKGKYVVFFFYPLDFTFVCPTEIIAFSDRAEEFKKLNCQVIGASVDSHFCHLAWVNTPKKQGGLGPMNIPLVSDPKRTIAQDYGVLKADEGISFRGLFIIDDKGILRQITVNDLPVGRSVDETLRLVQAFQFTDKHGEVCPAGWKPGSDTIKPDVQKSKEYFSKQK

With “MKP-1 protein labeled with QSY 35 (from UniProt P28562 1-367) (enzyme)”, the dissociation constant Kd was 215 nM in test [1], 210 nM in test [2] and 261 nM in test [3].

The Kd is the concentration at which binding is half-saturated.
